Experimental data from US12428456B2, “Peptide directed protein knockdown” (University of British Columbia, priority 2012, dated 2025).
“Also recorded” adds a separate entry of the source. No end group written: not given here.

Columns and labels:
[1] = biological target: T1, α-synuclein (Homo sapiens, UniProt P37840); assay: Knockdown of co-expressed α-synuclein in HEK cells (immunoblot); assay type: cell-based; conditions: for effect on α-synuclein levels: co-expression at various ratios, 48 hours
T1 construct: expressed in transfected cells; host or cells: HEK293
Protocol: Plasmid construction. CTS-GFP was constructed by introducing a BamHI fragment containing the CTS coding sequence into the pEGFP-N2 vector (Clontech #6081-1). The CTS coding sequence was prepared by annealing custom design oligonucleotides (Integrated DNA Technologies). mCTS-GFP was constructed by performing single point mutations to CTS-GFP plasmid. FLAG-βsyn36 was constructed by annealing oligonucleotides and inserting into pcDNA3.0 using HindIII and NotI restriction sites (HindIII, Fermentas, FD0504; NotI Fermentas, FD0594). FLAG-βsyn36-CTS was constructed by PCR using FLAG-βsyn36 as template and adding CTS coding sequence to the reverse primer. FLAG-cDAPK1 was constructed by deleting the autoinhibitory domain from WT-DAPK1 (789-936 bp). NR2Bct (1242-1342aa) was prepared by PCR using NR2B expression vector. NR2Bct-CTS fragment was obtained by inserting NR2Bct fragment into CTS-GFP using EcoRI and BglII restriction sites (EcoRI, Fermentas, FD0274; BglII, Fermentas, FD0084), then PCR, introducing NcoI and EcoRI to the fragment (NcoI, Fermentas, FD0574). His-TAT-NR2Bct-CTS was constructed by cloning NR2Bct-CTS into the pTAT/pTAT-HA plasmids (generous gift of S. Dowdy, Washington University, St. Louis, MO^31) using NcoI and EcoRI restriction sites. His-TAT-NR2Bct was constructed by mutating the first amino acid in CTS sequence into a stop codon. HA-NR2Bct-CTS was constructed by PCR using His-TAT-NR2Bct-CTS as template, with BamHI site in both forward and reverse primers, and then inserted into pcDNA3.0 with BamHI (Fermentas, FERFD0054). HA-NR2Bct-CTSm was constructed by point mutations.
(§1) Cell culture, transfection and treatments. HEK293 cells and COS7 cells were cultured in DMEM (Sigma, D6429-24X500ML) supplemented with 10% Fetal Bovine Serum (Invitrogen, 12483020). Cells were grown to 80% confluence in 6-well plates before transiently transfected with Lipofectamine 2000 (Invitrogen, 11668019), as according to the manufacturer's protocols. Cells were transfected for either 24 or 48 hours at 37° C. before harvesting for biochemical analyses. For experiments involving TAT or His-TAT peptides, unless otherwise specified, peptides were added 1 hour prior to NMDA insult.
(§2) Immunoblotting. Immunoblotting assays were carried out as previously described^36. Briefly, proteins were extracted from neurons using a lysis buffer composed of 150 mM NaCl, 50 mM Tris, pH 7.4, 0.1% SDS, 1% NP-40, 0.5% sodium deoxycholate, 1 mM EDTA, 1 mM Na3VO4, and proteinase inhibitor mixture (Thermo Fisher, PI78442). Samples were separated on 10% SDS-PAGE gels, transferred to polyvinylidene difluoride (PVDF) membrane, and immunoblotted with respective antibodies. Blots were enhanced with chemiluminescence detection reagent kit (Fisher, 32106) and visualized with Bio-Rad imager and Quantity One software. Signal intensities from each band was quantified with Bio-Rad Image Lab software, and the bands were analyzed relative to their controls from the same membrane and experiment.

[2] = biological target: T2, α-synuclein (Rattus norvegicus, UniProt P37377); assay: Degradation of endogenous α-synuclein in cultured neurons (immunoblot); assay type: cell-based
T2 construct: endogenous in cells; host or cells: primary rat neurons
Protocol: (§3) Primary culture of cortical neurons. Dissociated cultures of rat cortical neurons were prepared from Sprague Dawley rat embryos collected from euthanized mothers 18 days after fertilization as previously described^35. Briefly, hippocampi and cerebral cortices were extracted from embryos and incubated for 30 min in 0.25% trypsin-EDTA. Digested tissues were dissociated by trituration and plated on poly-D-lysine-coated (Sigma, P7280) plates. Plating medium consisted of Neurobasal Media (Invitrogen, 21103-049) supplemented with B27 (Invitrogen, 17504044), glutamic acid (Sigma, G8415) and GlutaMax (Invitrogen, 35050-061). After 2 days, 2/3 of the media was replaced with fresh Neurobasal feeding media consisting of Neurobasal Media, B27 and GlutaMax. Cultures were maintained at 37° C. in a humidified 5% CO2 atmosphere. Mature neurons (14-18 days in vitro (DIV)) were used for experiments.
as §2

[3] = biological target: T3, PSD95 (Rattus norvegicus, UniProt P31016); assay: Degradation of endogenous PSD95 in cultured neurons (immunoblot); assay type: cell-based; conditions: 25 μM bath applied
T3 construct: endogenous in cells; host or cells: primary rat neurons
T3 sequence (P31016 whole entry): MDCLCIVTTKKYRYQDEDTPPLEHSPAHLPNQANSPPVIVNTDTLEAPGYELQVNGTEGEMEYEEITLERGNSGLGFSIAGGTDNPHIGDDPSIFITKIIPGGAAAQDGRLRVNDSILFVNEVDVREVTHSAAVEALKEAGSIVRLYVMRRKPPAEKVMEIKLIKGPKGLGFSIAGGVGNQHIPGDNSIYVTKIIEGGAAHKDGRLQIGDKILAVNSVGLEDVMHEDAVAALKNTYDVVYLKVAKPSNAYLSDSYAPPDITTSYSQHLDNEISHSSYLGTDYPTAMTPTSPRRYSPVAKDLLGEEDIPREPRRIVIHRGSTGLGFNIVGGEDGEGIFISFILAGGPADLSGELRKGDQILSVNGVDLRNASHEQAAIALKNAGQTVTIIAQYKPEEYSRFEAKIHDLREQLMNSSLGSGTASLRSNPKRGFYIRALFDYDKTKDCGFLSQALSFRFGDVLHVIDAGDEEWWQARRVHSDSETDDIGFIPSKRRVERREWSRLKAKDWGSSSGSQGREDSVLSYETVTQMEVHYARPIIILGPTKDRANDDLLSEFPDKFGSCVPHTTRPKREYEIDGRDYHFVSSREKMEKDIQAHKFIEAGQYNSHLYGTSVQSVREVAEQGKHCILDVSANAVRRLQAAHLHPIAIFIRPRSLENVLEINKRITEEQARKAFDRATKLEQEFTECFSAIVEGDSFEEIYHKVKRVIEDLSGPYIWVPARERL
Protocol: as §3, §2

[4] = biological target: T4, DAPK1 (Rattus norvegicus, UniProt F1LNN8); assay: Knockdown of native DAPK1 in cultured cortical neurons, NMDA stimulation (immunoblot); assay type: cell-based; conditions: for reduction of activated DAPK1 on application alone: NR2B-CTS or Pep-1 alone; for effect on DAPK1 in cytosolic fraction / effect on DAPK1 in mitochondrial fraction / effect on DAPK1 in nuclear fraction: 1 hr prior to and during NMDA; for effect on DAPK1 in cytosolic fraction / effect on DAPK1 in mitochondrial fraction / effect on DAPK1 in nuclear fraction / levels of endogenous DAPK1 reduced by: 2 hours after washout; for levels of endogenous DAPK1 reduced by: with Pep-1 (1:4)
T4 construct: decreased the level of endogenous DAPK1 in cultured cortical neurons following NMDA treatment; endogenous in cells; host or cells: primary rat cortical neurons (E18, 14-18 DIV)
T4 sequence (F1LNN8 1-1430): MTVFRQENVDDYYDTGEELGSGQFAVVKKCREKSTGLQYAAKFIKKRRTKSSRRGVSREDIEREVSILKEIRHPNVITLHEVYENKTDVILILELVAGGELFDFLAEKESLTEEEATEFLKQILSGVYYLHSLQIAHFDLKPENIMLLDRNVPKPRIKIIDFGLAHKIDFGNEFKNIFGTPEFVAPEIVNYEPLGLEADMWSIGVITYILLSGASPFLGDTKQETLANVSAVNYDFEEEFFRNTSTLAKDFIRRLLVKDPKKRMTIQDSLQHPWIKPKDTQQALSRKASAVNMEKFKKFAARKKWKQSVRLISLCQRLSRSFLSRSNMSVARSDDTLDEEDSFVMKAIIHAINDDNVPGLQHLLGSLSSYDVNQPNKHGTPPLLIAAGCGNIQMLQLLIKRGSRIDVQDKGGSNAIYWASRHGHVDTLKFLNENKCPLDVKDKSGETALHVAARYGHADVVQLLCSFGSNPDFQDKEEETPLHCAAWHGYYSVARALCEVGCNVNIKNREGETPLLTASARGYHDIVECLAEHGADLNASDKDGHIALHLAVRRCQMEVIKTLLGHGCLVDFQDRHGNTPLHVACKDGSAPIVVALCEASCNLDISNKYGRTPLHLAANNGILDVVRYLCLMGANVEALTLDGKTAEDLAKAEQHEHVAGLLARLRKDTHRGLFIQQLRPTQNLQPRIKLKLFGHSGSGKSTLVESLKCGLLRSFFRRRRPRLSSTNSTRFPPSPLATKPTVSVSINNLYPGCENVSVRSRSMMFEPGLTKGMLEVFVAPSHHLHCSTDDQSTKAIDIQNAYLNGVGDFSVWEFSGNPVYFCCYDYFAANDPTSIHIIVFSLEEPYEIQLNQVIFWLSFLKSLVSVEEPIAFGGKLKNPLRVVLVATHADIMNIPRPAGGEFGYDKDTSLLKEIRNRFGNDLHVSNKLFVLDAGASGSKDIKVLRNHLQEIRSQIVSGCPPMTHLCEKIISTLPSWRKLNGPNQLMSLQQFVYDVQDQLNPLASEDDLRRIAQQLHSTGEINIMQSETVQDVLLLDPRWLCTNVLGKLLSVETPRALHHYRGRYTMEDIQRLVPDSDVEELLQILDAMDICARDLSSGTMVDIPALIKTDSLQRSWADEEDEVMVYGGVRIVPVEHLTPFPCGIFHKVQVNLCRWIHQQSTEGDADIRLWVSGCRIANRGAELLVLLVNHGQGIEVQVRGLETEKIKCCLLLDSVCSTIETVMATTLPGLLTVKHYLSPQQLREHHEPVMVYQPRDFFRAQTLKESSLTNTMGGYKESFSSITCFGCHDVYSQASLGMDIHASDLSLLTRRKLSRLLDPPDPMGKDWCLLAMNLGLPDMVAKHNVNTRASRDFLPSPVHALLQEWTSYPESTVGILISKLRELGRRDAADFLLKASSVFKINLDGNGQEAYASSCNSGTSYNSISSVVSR
Protocol: as §1, §3, §2
Cellular fractionation. Cytoplasm/nuclei fractionation was performed on cultured cortical neurons (6.0*10^6 cells/100 mm dish). Briefly, cells were washed with ice cold PBS and rocked in lysis buffer for 30 min. Cells were then collected and centrifuged to obtain a rough cytoplasmic and nuclear fraction. Supernatant was collected and further centrifuged to obtain purified cytosolic fraction. The original pellet was washed and vortexed to obtain a nuclear lysis. Mitochondrial fractionation was performed as described in the Pierce Mitochondria Isolation Kit for Cultured Cells (Thermo Scientific, 89874) user guide. Purity was assessed by immunoblotting for the presence of LB1 (nucleus only), HSP90 (cytosol only) and VDAC1 (mitochondria only).

[5] = biological target: T4, DAPK1; assay: DAPK1 knockdown in brain, rat MCAO focal ischemia model (immunoblot, immunohistochemistry); assay type: in vivo; conditions: 10 mg/kg i.v.
Protocol: as §2
Middle cerebral arterial occlusion (MCAO). All animal experiments were performed according to protocols approved by the University of British Columbia Committee on Animal Care. Adult naïve male Sprague-Dawley rats (300-350 g, Charles River) were group housed (3-4 animals/cage) in 12 hr:12 hr light-dark cycles and had free access to rat pellet chow and water prior to surgery. Reversible MCAO with suture-insertion method was performed as described previously^37. Briefly, a nylon suture with a blunted tip was entered through the right external carotid artery of anesthetized rats and advanced to the right internal carotid artery until the right MCA was occluded. After 60 min of occlusion, the rat was reanesthetized to facilitate the removal of the occlusion. Body temperature was maintained at between 36.5 and 37.5° C. throughout the surgical procedure with a heating pad. Peptides (10 mg/kg) or vehicle control (saline; 1 ml/kg) was injected via the jugular vein. Rats were then sewn up and allowed to recover until tissue collection.
Immunohistochemistry. Rats were anesthetized and perfused with double-filtered saline and 4% paraformaldehyde (PFA) in PBS. Brains were collected, immersed in 4% PFA before subjected to cryoprotection by 30% sucrose/PBS. After the brains had sunk, they were flash frozen with dry ice before overnight freezing in −80° C. They were then sliced at […] with a cryostat, and stored in 0.1 μM PB (sodium phosphate dibasic and sodium phosphate monobasic). Prior to staining, slices were washed 3×10 min with 0.1 μM PB, permeablized and blocked in 0.1 μM PB with 1% BSA and 0.2% Triton X-100 for 30 min, and stained with anti-DAPK1 (1:100) at 4° C. for 3 days. They were then washed and stained with Alexa 488 (1:1000) at 4° C. overnight before washing and mounting.

## FLAG-βsyn36-CTS: expressed FLAG-tagged peptide of β-synuclein 36-45 and CTS (untagged: SEQ ID NO:1 GVLYVGSKTRKFERQKILDQRFFE) ({FLAG}-GVLYVGSKTRKFERQKILDQRFFE)
[1]; +NH4Cl 20 mM
  effect of lysosome inhibitor on peptide-induced α-synuclein reduction: completely rescued; also recorded: prevented
[1]
  effect on α-synuclein levels: significantly decreased α-synuclein levels in a dose-dependent manner
[1]; listed as βsyn36-CTS
  effect on α-synuclein levels: constitutively reduced α-synuclein in a dose-dependent manner
[1]; co-expression ratio 2:1, 48 hours
  α-synuclein reduced by, of control α-synuclein levels: 42.89%±11.34%
[1]; co-expression ratio 4:1, 48 hours
  α-synuclein reduced by, of control α-synuclein levels: 46.49%±5.72%
[1]; co-expression ratio 8:1, 48 hours
  α-synuclein reduced by, of control α-synuclein levels: 52.18%±6.61%
[1]; co-expression ratio peptide:α-synuclein 1:1, 48 hours
  α-synuclein reduced by, of control α-synuclein levels: 32.40%±7.14%

## YGRKKRRQRRRGVLYVGSKTRKFERQKILDQRFFE (Knockdown peptide targeting alpha-synuclein, with TAT protein transduction domain) [TAT-βsyn-CTM, synthetic cell-penetrating α-synuclein targeting peptide]
[2]; 25 μM bath applied, 4 hours
  effect on endogenous α-synuclein level: significantly degraded native α-synuclein; also recorded: specifically decreased the targeted endogenous α-synuclein
[2]; 25 μM, +3-MA 10 mM
  effect of 3-methyladenine on α-synuclein reduction: not by inhibition of macroautophagy with 3-methyladenine; also recorded: significantly decreased native α-synuclein in the presence of 3-MA
[2]; 25 μM, +NH4Cl 20 mM
  effect of NH4Cl on α-synuclein reduction: rescued; also recorded: prevented
[3]
  effect on endogenous PSD95 level: without affecting the non-intended target PSD95; also recorded: without affecting the level of unrelated control proteins PSD-95

## FLAG-βsyn36: expressed FLAG-tagged β-synuclein 36-45 peptide without CTS ({FLAG}-GVLYVGSKTR; UniProt Q16143 36-45, looked up, fragment) [reference compound]
[1]
  effect on α-synuclein levels: did not significantly affect

## KETWWETWWTEWSQPKKKRKV [Pep-1, short amphipathic intracellular delivering carrier peptide, reference compound]
[4]; NMDA
  reduction of activated DAPK1 on application alone: not produced

## YGRKKRRQRRRKKNRNKLRRQHSYKFERQKILDQRFFE (Knockdown peptide targeting DAPK1, with TAT protein transduction domain) [TAT-NR2B-CTS]
[4]; 25 μM peptide, NMDA, Lamp2a siRNA 60 pmol 3 days
  effect of siRNA-mediated Lamp2a knockdown on DAPK1 knockdown: inhibition of TAT-NR2BCTM induced knockdown of DAPK1
[4]; 25 μM
  effect on DAPK1 in cytosolic fraction: reduced the levels of DAPK1
  effect on DAPK1 in mitochondrial fraction: reduced the levels of DAPK1
  effect on DAPK1 in nuclear fraction: reduced the levels of DAPK1
[4]; 25 μM, listed as TAT-NR2BCTM
  effect on DAPK1 in cytosolic fraction: significantly decreased DAPK1
  effect on DAPK1 in mitochondrial fraction: significantly decreased DAPK1
  effect on DAPK1 in nuclear fraction: significantly decreased DAPK1
[4]; NMDA, +3-MA
  effect of macroautophagy inhibitor on DAPK1 knockdown: did not alter
[4]; synthetic peptide 25 μM, NMDA, +NH4Cl 20 mM
  effect of lysosomal inhibitor on DAPK1 reduction: rescued; also recorded: prevented
[4]; synthetic peptide 25 μM, prior to and during NMDA
  effect on DAPK1 level after NMDA treatment: significant reduction of DAPK1; also recorded: decreased native DAPK1
[5]; 1 hour following reperfusion, 60 min MCAO
  level of DAPK1 in ischemic side, of that on the contralateral side: 43.3%
[5]; brain sections, listed as TAT-NR2BCTM
  region specificity of DAPK1 knockdown (immunohistochemistry): specific to stroke-damaged areas; also recorded: selectively reduced the level of DAPK1
[5]; ischemic vs contralateral side, listed as TAT-NR2BCTM
  effect on DAPK1 levels in brain tissues (immunoblot): significant reduction in DAPK1 levels only in the ischemic side of the brain; also recorded: specific knockdown of DAPK1 only in tissues collected from the infract side

## KKNRNKLRRQHSYKFERQKILDQRFFE (Knockdown peptide targeting DAPK1, without TAT protein transduction domain) [NR2B-CTS, synthetic DAPK1 degradation targeting peptide without TAT, delivered with Pep-1]
[4]; 10 μM, NMDA
  levels of endogenous DAPK1 reduced by: 33.60±14.48%
[4]; 25 μM, NMDA
  levels of endogenous DAPK1 reduced by: 43.65±2.05%
[4]; 50 μM, NMDA
  levels of endogenous DAPK1 reduced by: 63.88±6.18%
[4]; NMDA
  reduction of activated DAPK1 on application alone: not produced
[4]; delivered by Pep-1, no NMDA
  effect on DAPK1 levels in non-NMDA treated neurons: did not affect DAPK1 levels
[4]; with Pep-1, 1 hour following NMDA and peptide washout
  DAPK1 decrease: 58.27±5.48%
[4]; with Pep-1, 2 hours after washout
  DAPK1 decrease (maximum level): 78.79±1.15%
[4]; with Pep-1, NMDA, +NH4Cl 20 mM
  effect of NH4Cl on DAPK1 reduction: fully rescued
